Experimental data reported in publication PMC5544353.

Target: Reconstituted CENP-A chromatin (CENP-A nucleosome arrays with Myc-tagged histone H4) (UniProt Q569M3)
Assay: chromatin-bead binding read by immunofluorescence

Sequence of UniProt Q569M3 (Q569M3 whole entry, looked up): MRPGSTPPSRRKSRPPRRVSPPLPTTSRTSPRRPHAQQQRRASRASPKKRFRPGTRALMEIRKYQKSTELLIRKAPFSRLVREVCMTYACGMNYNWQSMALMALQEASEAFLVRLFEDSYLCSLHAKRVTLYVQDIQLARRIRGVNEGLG

Substance “M18BP1-2 truncation, amino acids 747-944 (in vitro translated) (domain or fragment)” has a binding as percent of full-length M18BP1-2 of 53%.

“Xenopus laevis M18BP1-1 (natural protein)” was tested, and the fold enrichment on CENP-A chromatin relative to H3 chromatin was 2.5 fold.

Substance “Xenopus laevis M18BP1-2, full length (natural protein)” has a fold enrichment on CENP-A chromatin relative to H3 chromatin of 5 fold.
